Test results: patent publication US5567433A, “Liposome preparation and material encapsulation method” (Amgen Inc., priority 1995, dated 1996)

B1: G-CSF: recombinant human granulocyte colony stimulating factor (protein, UniProt P09919 31-207, looked up)
Granulocyte …: TPLGPASSLPQSFLLKCLEQVRKIQGDGAALQEKLVSECATYKLCHPEELVLLGHSLGIPWAPLSSCPSQALQLAGCLSQLHSGLFLYQGLLQALEGISPELGPTLDTLQLDVADFATTIWQQMEELGMAPALQPTQGAMPAFASAFQRRAGGVLVASHLQSFLEVSYRVLRHLAQP

What was measured:
[1] = In vivo release after subcutaneous injection into rats; parameters: species or system Sprague-Dawley rats; details: either liposome composition
Description: Liposomes composed of either DPPC or DMPG:DSPC:CHOL (1:4:5 molar) were prepared substantially in accordance with Method 4, above, to contain either ^125 I-tyraminyl inulin (at a final specific activity of 0.4×10^6 dpm/ml) or ^125 I-rhG-CSF (at a final specific activity of 1×10^6 dpm/ml). (See: ^125 I-labeled Inulin: A convenient marker for deposition of liposome contents in vivo. Sommerman, E. F., Pritchard, P. H. and Cullis, P. R. Biochem Biophys Res Coramerc Vol. 122(1), 319-324; 1984.) The final lipid composition was 30 mM. The injection site was marked. At various times after injection, the rats were sacrificed and the injection site was excised and counted for remaining ^125 I. Percent release was defined as %Release=100(1-DPMt /DPMo), where DPMt is the dpm remaining at the site at time t, and DPMo is the initial dpm injected (t=0).

[2] = Encapsulation of various protein therapeutics and oligonucleotides using Method 4; type: physicochemical; details: up to; present invention
Description: Lipid films, prepared as described in Method 1, were hydrated in water and sonicated. The sonicated dispersions were then subjected to 3-5 cycles of freezing (dry ice/acetone) and thawing (37° C). The dispersions were freeze dried and ground as in Method 2 to form a lipid powder. The powder was subsequently hydrated in G-CSF, and the liposome-encapsulated material was microfluidized as described in Method 1. Unencapsulated G-CSF was separated from encapsulated G-CSF as described in Method 2.
The lipid samples were prepared, sonicated and subjected to freeze/thaw cycles as described in Method 3. Prior to dehydrating the sample, D-mannitol was added (1:1 weight ratio to lipid) as a bulking agent. The samples were freeze-dried and rehydrated, upon use, as described in Method 3. Hydration and microfluidization was carried out as described in Method 1. The samples were then dialyzed as described in Method 2.

[3] = test system: G-CSF; experiment: Reverse phase HPLC of encapsulated G-CSF; type: physicochemical, human; details: C4 reverse phase HPLC
Description: Biologically active material encapsulated in accordance with Method 4, above, was also subjected to reverse phase high pressure liquid chromatography (HPLC) to determine whether liposome-encapsulation led to structural changes in the encapsulated material. For example, G-CSF alone or encapsulated in DMPG:DSPC:CHOL (1:4:5) liposomes was examined by C4 reverse phase HPLC under the following conditions:
Buffer A: 0.1% trifluoroacetic acid in water
Buffer B: 0.1% trifluoroacetic acid in 90% acetonitrile
Gradient: 0-90% B in 60 minutes
Flow rate: 0.8 milliliter/minute
Detection: 220 nanometers
Thirty micrograms of G-CSF was loaded per run. Liposomes were lysed in 40% methanol for 30 minutes at 37° C. prior to chromatography.

| Molecule | leakage of inulin or G-CSF [1] | Encapsulation of input [2] | material destruction or aggregation upon encapsulation [3] | structural integrity of G-CSF released from liposomes ([3]; liposomes lysed in 40% methanol) | Recovery ([3]; 30 μg G-CSF injected) |
| --- | --- | --- | --- | --- | --- |
| inulin [reference compound] | No significant difference | – | – | – | – |
| B1 | No significant difference | 80-90% | no material destruction or aggregation | structurally identical to G-CSF which was never encapsulated | 100% |
